The record followed here is article PMC6010275.

In this assay the target is β-clamp of the Escherichia coli replisome (E. coli) (UniProt P0A988).
Sequence of UniProt P0A988 (P0A988 whole entry): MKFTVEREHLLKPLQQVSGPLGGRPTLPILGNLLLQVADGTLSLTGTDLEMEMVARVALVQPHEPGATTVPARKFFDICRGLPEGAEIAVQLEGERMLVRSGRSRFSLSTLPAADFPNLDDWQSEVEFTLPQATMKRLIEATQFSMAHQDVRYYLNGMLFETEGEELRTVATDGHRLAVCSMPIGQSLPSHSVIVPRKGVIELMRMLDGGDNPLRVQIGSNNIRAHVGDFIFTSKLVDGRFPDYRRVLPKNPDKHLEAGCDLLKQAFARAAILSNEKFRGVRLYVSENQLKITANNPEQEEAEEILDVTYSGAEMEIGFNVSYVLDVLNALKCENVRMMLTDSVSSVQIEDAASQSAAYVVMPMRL

In the case of “DNA polymerase I (from UniProt P00582 1-928) (enzyme)”, the rate of cleavage of a 10 nucleotide 5' flap by Pol I, with template-loaded β-clamp against without (denaturing gel) was 2.5 fold.
